Drawing on patent US20250163127A1, this text covers Fold change to WT, MFI and Fold change to WT CD80 for 31 molecules.

Sequences and labels used below:
B1: CD80 variant A26E/Q33R/E35D/M47L/L85Q/K86E IgV-Fc (Fc fusion)
chain: VIHVTKEVKEVATLSCGHNVSVEELEQTRIYWRKDKKMVLTMMSGDLNIWPEYKNRTIFDITNNLSIVILALRPSDEGTYECVVQEYEKDAFKREHLAEVT
B2: CD80 variant E7D/E35D/M47I/L97Q IgV-Fc (Fc fusion)
chain: B1 chain with E7D, E26A, R33Q, L47I, Q85L, E86K, L97Q
B3: CD80 variant Q33K/E35D/M47V/K89E/K93R IgV-Fc (Fc fusion)
chain: B1 chain with E26A, R33K, L47V, Q85L, E86K, K89E, K93R
B4: CD80 variant H18Y/E35D/M47L IgV-Fc (Fc fusion)
chain: B1 chain with H18Y, E26A, R33Q, Q85L, E86K
B5: CD80 variant Q33L/E35D/T41S/M47V IgV-Fc (Fc fusion)
chain: B1 chain with E26A, R33L, T41S, L47V, Q85L, E86K
B6: CD80 variant Q33L/E35D/M47I/L85Q IgV-Fc (Fc fusion)
chain: B1 chain with E26A, R33L, L47I, E86K
B7: CD80 variant H18Y/A26E/Q33L/E35D/M47L/L85Q IgV-Fc (Fc fusion)
chain: B1 chain with H18Y, R33L, E86K
B8: CD80 variant Y31S/E35D/M47L/T79L/E88G IgV-Fc (Fc fusion)
chain: B1 chain with E26A, Y31S, R33Q, T79L, Q85L, E86K, E88G
B9: CD80 variant Q33K/E35D/D46V/L85Q IgV-Fc (Fc fusion)
chain: B1 chain with E26A, R33K, D46V, L47M, E86K
B10: CD80 variant A26E/Q33R/E35D/M47L/L85Q IgV-Fc (Fc fusion)
chain: B1 chain with E86K
B11: CD80 variant V22A/E23D/Q33L/E35D/M47V IgV-Fc (Fc fusion)
chain: B1 chain with V22A, E23D, E26A, R33L, L47V, Q85L, E86K
B12: CD80 variant A26E/Q33L/E35D/M47L IgV-Fc (Fc fusion)
chain: B1 chain with R33L, Q85L, E86K
B13: CD80 variant Q33L/E35D/T41S/M43I IgV-Fc (Fc fusion)
chain: B1 chain with E26A, R33L, T41S, M43I, L47M, Q85L, E86K
B14: CD80 variant Q33L/E35D/M47I/T62N/L85Q IgV-Fc (Fc fusion)
chain: B1 chain with E26A, R33L, L47I, T62N, E86K
B15: CD80 variant Q33L/E35D/M47I IgV-Fc (Fc fusion)
chain: B1 chain with E26A, R33L, L47I, Q85L, E86K
B16: CD80 variant H18Y/Q33L/E35D/M47I IgV-Fc (Fc fusion)
chain: B1 chain with H18Y, E26A, R33L, L47I, Q85L, E86K
B17: CD80 variant A26E/Q33L/E35D/M47L/L85Q IgV-Fc (Fc fusion)
chain: B1 chain with R33L, E86K
B18: CD80 variant E35D/M47L/L85Q IgV-Fc (Fc fusion)
chain: B1 chain with E26A, R33Q, E86K
B19: CD80 variant A26E/E35D/M43T/M47L/L85Q/R94Q IgV-Fc (Fc fusion)
chain: B1 chain with R33Q, M43T, E86K, R94Q
B20: CD80 variant Q33L/E35D/M47V/L85Q IgV-Fc (Fc fusion)
chain: B1 chain with E26A, R33L, L47V, E86K
B21: ICOSL ECD-Fc N84Q (Fc fusion)
chain: DTQEKEVRAMVGSDVELSCACPEGSRFDLNDVYVYWQTSESKTVVTYHIPQNSSLENVDSRYRNRALMSPAGMLRGDFSLRLFQVTPQDEQKFHCLVLSQSLGFQEVLSVEVTLHVAANFSVPVVSAPHSPSQDELTFTCTSINGYPRPNVYWINKTDNSLLDQALQNDTVFLNMRGLYDVVSVLRIARTPSVNIGCCIENVLLQQNLTVGSQTGNDIGERDKITENPVSTGEKNAAT
B22: ICOSL ECD-Fc N84Q/N119Q (Fc fusion)
chain: B21 chain with N119Q
B23: ICOSL ECD-Fc N52Q/N84Q/N119Q/N207Q (Fc fusion)
chain: B21 chain with N52Q, N119Q, N207Q
B24: ICOSL ECD-Fc N119Q/N168Q (Fc fusion)
chain: B21 chain with Q84N, N119Q, N168Q
B25: ICOSL ECD-Fc N155Q/N207Q (Fc fusion)
chain: B21 chain with Q84N, N155Q, N207Q
B26: ICOSL ECD-Fc N119Q/N168Q/N207Q (Fc fusion)
chain: B21 chain with Q84N, N119Q, N168Q, N207Q
B27: ICOSL ECD-Fc N168Q (Fc fusion)
chain: B21 chain with Q84N, N168Q
B28: ICOSL ECD-Fc N119Q/N207Q (Fc fusion)
chain: B21 chain with Q84N, N119Q, N207Q
B29: ICOSL ECD-Fc N52Q/N119Q/N155Q (Fc fusion)
chain: B21 chain with N52Q, Q84N, N119Q, N155Q
B30: ICOSL ECD-Fc N84Q/N168Q/N207Q (Fc fusion)
chain: B21 chain with N168Q, N207Q
B31: ICOSL ECD-Fc N52Q/N84Q (Fc fusion)
chain: B21 chain with N52Q

Residue numbers refer to the chain shown, from its start. Names and notes keep the numbering of the source.

CTLA4 (human), sequence (chain, as listed by the source): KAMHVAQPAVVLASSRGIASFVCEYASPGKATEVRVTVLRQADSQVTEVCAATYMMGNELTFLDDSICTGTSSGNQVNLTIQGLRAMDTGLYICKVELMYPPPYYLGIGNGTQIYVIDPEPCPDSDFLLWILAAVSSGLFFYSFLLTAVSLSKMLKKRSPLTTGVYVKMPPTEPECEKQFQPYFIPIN

In the first assay the target is PD-L1 (human). The assay can be described thus: flow cytometry, CHO cells stably expressing PD-L1. For orientation: A flow cytometer gives signals particle by particle.
PD-L1 (human), sequence (chain, as listed by the source): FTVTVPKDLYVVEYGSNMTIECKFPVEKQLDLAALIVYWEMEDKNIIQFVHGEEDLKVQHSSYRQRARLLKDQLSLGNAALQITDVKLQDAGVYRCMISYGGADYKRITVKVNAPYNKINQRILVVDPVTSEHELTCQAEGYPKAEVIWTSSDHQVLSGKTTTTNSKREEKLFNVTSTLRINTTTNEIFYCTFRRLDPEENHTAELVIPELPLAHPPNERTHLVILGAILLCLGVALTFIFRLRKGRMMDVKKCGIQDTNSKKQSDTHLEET
Take B1: the Fold change to WT stood at 9.56 fold and the MFI at 33.3 nM was 76000 MFI.

For B2, the Fold change to WT was 1.84 fold and the MFI at 33.3 nM amounted to 14600 MFI.

In turn, B3 yielded an MFI at 33.3 nM of 39100 MFI.

Consider B4, for which the Fold change to WT was determined as 5.56 fold and the MFI at 33.3 nM is 44200 MFI.

In turn, B5 registered a Fold change to WT of 5.52 fold and an MFI at 33.3 nM of 43800 MFI.

With B6, the Fold change to WT stood at 8.05 fold and the MFI at 33.3 nM came out at 63900 MFI.

As to B7, the Fold change to WT is 9.64 fold and the MFI at 33.3 nM came to 76600 MFI.

The molecule B8 yielded a Fold change to WT of 4.9 fold and an MFI at 33.3 nM of 38900 MFI.

B9 registered a Fold change to WT of 3.36 fold and an MFI at 33.3 nM of 26700 MFI.

B10 showed a Fold change to WT of 10.3 fold and an MFI at 33.3 nM of 81500 MFI.

As to B11, the Fold change to WT was found to be 9.51 fold and the MFI at 33.3 nM is 75500 MFI.

The molecule B12 came in with a Fold change to WT of 7.67 fold and an MFI at 33.3 nM of 60900 MFI.

Molecule B13 came in with a Fold change to WT of 5.66 fold and an MFI at 33.3 nM of 44900 MFI.

On to B14, for which the Fold change to WT was determined as 9.14 fold and the MFI at 33.3 nM was determined as 72600 MFI.

B15 registered a Fold change to WT of 4.7 fold and an MFI at 33.3 nM of 37400 MFI.

In turn, B16 registered a Fold change to WT of 6.02 fold and an MFI at 33.3 nM of 47800 MFI.

The molecule B17 returned a Fold change to WT of 7.89 fold and an MFI at 33.3 nM of 62700 MFI.

In turn, B18 displayed a Fold change to WT of 4.18 fold and an MFI at 33.3 nM of 33200 MFI.

As for B19, the Fold change to WT was 8.57 fold and the MFI at 33.3 nM was 68100 MFI.

Turning to B20, the Fold change to WT was 5.97 fold and the MFI at 33.3 nM is 47400 MFI.

A further assay concerns the target CD28 (human) (UniProt P10747). Nature of the assay: flow cytometry, transfected cells.
For the molecule B21, the MFI is 1760 MFI.

Consider B22, for which the MFI amounted to 1490 MFI.

B23 gave an MFI of 602 MFI.

B24 returned an MFI of 2530 MFI.

Molecule B25 had an MFI of 1490 MFI.

With B26, the MFI turned out to be 921 MFI.

Molecule B27 displayed an MFI of 1410 MFI.

B28 had an MFI of 1860 MFI.

Take B29: the MFI worked out at 552 MFI.

As to B30, the MFI is 737 MFI.

Molecule B31 came in with an MFI of 1680 MFI.

The target of the next assay is CD28 (human) (UniProt P10747). Nature of the assay: flow cytometry, Jurkat cells (CD28).
B1 returned a Fold change to WT of 0.04 fold and an MFI at 33.3 nM of 275 MFI.

Regarding B2, the Fold change to WT was 0.04 fold and the MFI at 33.3 nM was determined as 273 MFI.

For B3, the MFI at 33.3 nM turned out to be 276 MFI.

B4 yielded a Fold change to WT of 0.66 fold and an MFI at 33.3 nM of 5070 MFI.

Turning to B5, the Fold change to WT worked out at 0.04 fold and the MFI at 33.3 nM came out at 287 MFI.

B6 showed a Fold change to WT of 0.04 fold and an MFI at 33.3 nM of 287 MFI.

B7 returned a Fold change to WT of 0.04 fold and an MFI at 33.3 nM of 272 MFI.

B8 had a Fold change to WT of 0.04 fold and an MFI at 33.3 nM of 278 MFI.

With B9, the Fold change to WT is 0.03 fold and the MFI at 33.3 nM turned out to be 257 MFI.

For B10, the Fold change to WT came out at 0.03 fold and the MFI at 33.3 nM was determined as 264 MFI.

B11 showed a Fold change to WT of 0.04 fold and an MFI at 33.3 nM of 274 MFI.

B12 returned a Fold change to WT of 0.04 fold and an MFI at 33.3 nM of 271 MFI.

B13 had a Fold change to WT of 0.06 fold and an MFI at 33.3 nM of 433 MFI.

B14 yielded a Fold change to WT of 0.04 fold and an MFI at 33.3 nM of 284 MFI.

Take B15: the Fold change to WT worked out at 0.04 fold and the MFI at 33.3 nM came out at 282 MFI.

For B16, the Fold change to WT turned out to be 0.04 fold and the MFI at 33.3 nM was found to be 295 MFI.

B17: the Fold change to WT came out at 0.04 fold and the MFI at 33.3 nM was determined as 274 MFI.

B18 displayed a Fold change to WT of 0.08 fold and an MFI at 33.3 nM of 646 MFI.

B19 gave a Fold change to WT of 0.03 fold and an MFI at 33.3 nM of 260 MFI.

The molecule B20 came in with a Fold change to WT of 0.04 fold and an MFI at 33.3 nM of 268 MFI.

A further assay addresses CTLA4 (human). Nature of the assay: flow cytometry, CHO cells stably expressing CTLA4.
Regarding B1, the Fold change to WT CD80 is 0.01 fold and the MFI at 33.3 nM turned out to be 1280 MFI.

B2 yielded a Fold change to WT CD80 of 1.52 fold and an MFI at 33.3 nM of 271000 MFI.

Turning to B4, the Fold change to WT CD80 was 1.59 fold and the MFI at 33.3 nM was 284000 MFI.

As for B5, the Fold change to WT CD80 is 0.08 fold and the MFI at 33.3 nM was 14500 MFI.

Take B6: the Fold change to WT CD80 is 0.11 fold and the MFI at 33.3 nM was found to be 20500 MFI.

Molecule B7 displayed a Fold change to WT CD80 of 0.01 fold and an MFI at 33.3 nM of 2090 MFI.

For B8, the Fold change to WT CD80 is 0.01 fold and the MFI at 33.3 nM was found to be 1100 MFI.

With B9, the Fold change to WT CD80 came out at 0.05 fold and the MFI at 33.3 nM amounted to 8510 MFI.

As for B10, the Fold change to WT CD80 came to 0.01 fold and the MFI at 33.3 nM amounted to 1280 MFI.

Regarding B11, the Fold change to WT CD80 amounted to 0.02 fold and the MFI at 33.3 nM worked out at 3640 MFI.

B12 returned a Fold change to WT CD80 of 0.01 fold and an MFI at 33.3 nM of 1320 MFI.

On to B13, for which the Fold change to WT CD80 worked out at 0.04 fold and the MFI at 33.3 nM came out at 6390 MFI.

With B14, the Fold change to WT CD80 worked out at 0.01 fold and the MFI at 33.3 nM stood at 1660 MFI.

The molecule B15 came in with a Fold change to WT CD80 of 0.09 fold and an MFI at 33.3 nM of 15900 MFI.

The molecule B16 gave a Fold change to WT CD80 of 0.03 fold and an MFI at 33.3 nM of 5540 MFI.

Molecule B17 gave a Fold change to WT CD80 of 0.01 fold and an MFI at 33.3 nM of 1170 MFI.

In turn, B18 yielded a Fold change to WT CD80 of 1.88 fold and an MFI at 33.3 nM of 336000 MFI.

In turn, B19 displayed a Fold change to WT CD80 of 1.56 fold and an MFI at 33.3 nM of 278000 MFI.

B20: the Fold change to WT CD80 was determined as 0.42 fold and the MFI at 33.3 nM was 75400 MFI.
